Experimental data: patent publication US5763271A, “Vasodilatory and immune suppressant peptides” (The President and Fellows of Harvard College, priority 1994, dated 1998)
Where no end group is shown, it is not given here.

Legend:
human macrophages = experiment: H2O2 production by IFN-γ activated macrophages (scopoletin fluorometric assay); assay type: cell-based; conditions: 3 hrs preincubation, IFN-γ 200 units/ml, 3 days
Protocol: Monocytes obtained by leukophoresis of healthy volunteers were purified on Ficoll-hypaque and Percoll (Pharmacia, Piscataway, N.J.) gradients and placed into microtiter well (5×10^5 /well) in RPMI-1640 (GIBCO, Grand Island, N.Y.) with 5% pooled normal human serum and 1% gentamycin (M. A. Bioproducts, Walkinville, Md.). The cells were greater than 95% macrophages as judged by esterase staining. […] After one day in culture, non-adherent cells were rinsed away and the macrophages were treated, e.g., with human CGRP, Calcitonin, or LP as described below. Following treatment, the macrophages were incubated for three days with a concentration of from 100 to 400 units interferon gamma (Amgen Biologicals, Thousand Oaks, Calif.), in medium with 15% pooled normal human serum, at which time the H2 O2 concentration in the cells was determined.
H2 O2 production by macrophages was determined by fluorometric assay using the fluorophore scopoletin (de la Harpe et al., J. Immunol. Methods 78: 323 (1985)). […] The amount of H2 O2 released per culture is determined as nanomoles H2 O2. […]
Human macrophage monolayers were pretreated for three hours with varying concentrations of human CGRP. […] The amount Of H2 O2 produced by the cells was then determined according to the above procedure. […]

Leishmania major = experiment: Exacerbation of cutaneous leishmaniasis (footpad lesion size); assay type: in vivo, CBA mice; conditions: 80 pg admixed with 10^5 L. major promastigotes, subcutaneous
Protocol: In order to assay for immunosuppressive activity, the recombinant LP protein described in subsection A above was tested for the ability to exacerbate infection of mice with Leishmania major substantially as described in Titus et al. (1988) Science 239, 1306 and Theodos et al. (1991) Infect. Immun. 59, 1592-1598.
Briefly, groups of 4 CBA mice each were injected subcutaneously in the footpad with 10^5 L. major promastigotes alone or 10^5 parasites admixed with 80 pg of LP protein. Lesion development was followed by measuring the increase in thickness of the injected footpad compared to the thickness of the contralateral uninjected control footpad.

RAW 264.7 cell line = experiment: Inhibition of nitric oxide production by LPS-stimulated macrophages (Greiss reaction); assay type: cell-based; conditions: 10^6 to 10^1 pg/ml; LPS 1 μg/ml; nitrite 2 hours later
Protocol: Macrophage cells from the RAW 264.7 cell line (Drapier et al. (1988) J. Immunol. 140:2829) were preincubated with various concentrations of LP protein as indicated in FIG. 8. The cells were then stimulated with 1 μg/ml lipopolysaccharide […] (LPS) and NO production was monitored 2 hours later by measuring nitrite in the supernatants of the cultures. Nitrite was measured by the method described in Ding et al. (1988) J. Immunol. 141:2407. Briefly, levels of nitrite in the supernatants of the cultures were assessed by the Greiss reaction as follows. 50 μl cell culture supernatants were mixed with 50 μl of Greiss reagent [1% sulfanilamide, 0.1% N-(1-naphthyl)ethyl-enediamine dihydrochloride in 2.5% phosphoric acid] and incubated at room temperature for 10 minutes. Absorbance was measured at 570 nm. Concentration of NO2 in the supernatant was determined by comparison to a standard curve generated with dilutions of NaNO2.

calcitonin (CGNLSTCMLGTYTQDFNKFHTFPQTAIGVGAP; ends and bridges not checked; cysteine pairing not given here; UniProt P01258 85-116, looked up) [neuropeptide derived from the same gene as CGRP, available commercially]
inhibition of H2O2 production by macrophages (human macrophages): to a degree similar to that seen with CGRP

B1: recombinant LP protein: LP protein, substantially the amino acid sequence of SEQ ID NO:4, expressed in E. coli as a polyHis fusion protein (protein)
chain: MKYSLNNLHFLVDVAEGCDATCQFRKAIEDCRKKAHHSDVLQTSVQTTATFTSMDTSQLPGSGVFKECMKEKAKEFKAGK
modifications: polyHis tag
effect on Leishmania infection (size of footpad lesions) (Leishmania major): greatly exacerbated | NO production by macrophages preincubated with the protein (RAW 264.7 cell line): significant decrease
